The target in this data set is CCANdeltaCT (CENP-LN, CENP-HIKM, CENP-OPQUR; no CENP-C, no CENP-TWSX) (Homo sapiens, UniProt Q8N0S6;Q96H22;Q9H3R5;Q92674;Q9BS16;Q9NSP4;Q9BU64;Q6IPU0;Q7L2Z9;Q71F23;Q13352 …). Nature of the data set: EMSA; 300 mM NaCl; EMSA: 20 mM HEPES-Na pH 7.5, 300 mM NaCl, 0.5 mM TCEP, 10 min on ice, 1% agarose in 0.5x TAE; SEC: Superose 6 (analytical SEC buffer not given in the material). The following applies: protein: recombinant; tags: His6 C-term on CENP-N and CENP-Q; copies: 1;1;1;1;1;1;1;1;1;1;1; blunt. On the technique in general: Mobility shift assays separate free from complexed probe on a gel.

B1: 147 bp DNA (Widom 601) (dsDNA)
DNA 1: ATCGAGAATCCCGGTGCCGAGGCCGCTCAATTGGTCGTAGACAGCTCTAGCACCGCTTAAACGCACGTACGCGCTGTCCCCCGCGTTTTAACCGCCAAGGGGATTACTCCCTAGTCTCCAGGCACGTGTCACATATATACATCCGAT
DNA 2: ATCGGATGTATATATGTGACACGTGCCTGGAGACTAGGGAGTAATCCCCTTGGCGGTTAAAACGCGGGGGACAGCGCGTACGTGCGTTTAAGCGGTGCTAGAGCTGTCTACGACCAATTGAGCGGCCTCGGCACCGGGATTCTCGAT
As for B1, the binding result is recorded as “binds”.

Source of the values: article PMC9463443.
